Reference: patent US20150218283A1 (BIOSCEPTRE INTERNATIONAL, published 2015)

T1: E200-300 peptide (complex peptide epitope of human P2X7 receptor)
T1 peptide: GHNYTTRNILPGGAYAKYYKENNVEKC

T2: E200-300 peptide (complex peptide epitope of human P2X7 receptor) (human)
T2 construct: also called antigen E200-300
T2 peptide: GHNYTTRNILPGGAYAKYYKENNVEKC


Legend:
[1] = target: T1, E200-300 peptide (complex peptide …); experiment: ELISA; Fab
[2] = target: T2, E200-300 peptide (complex peptide …); experiment: ELISA on the E200-300 epitope target
[3] = target: T2, E200-300 peptide (complex peptide …); experiment: method not stated

Binder | EC50 [2] [µg/mL] | further results
2F6 WT recombinant Fab (Fab, V domains shown) VH: DVKLVESGGGLVKLGGSLKLSCAASGFTFSSYYMSWVRQTPEKRLELVAAINSNGGSTYYPDTVKGRFTISRDNAKNTLYLQMSSLKSEDTAFYYCTRHYSSRFFDVWGAGTTVTVSS VL: DIVMTQSQKFMSTSVGDRVSVTCKASQNVGTNVAWYQQKPGQSPKALIYSASFRYSGVPDRFTGSGSGTDFTLTISNVQSEDLAEFFCQQYNSYPFTFGSGTRLEIK | – | EC50 [1]: ~250 µg/mL
2F6 IgM antibody (original mouse hybridoma antibody, IgM class with Kappa light chains) (antibody, V domains shown, Mouse IgM, kappa light chain, grown in mouse ascites; also called original IgM; IgM form of the original antibody) VH: DVKLVESGGGLVKLGGSLKLSCAASGFTFSSYYMSWVRQTPEKRLELVAAINSNGGSTYYPDTVKGRFTISRDNAKNTLYLQMSSLKSEDTAFYYCTRHYSSRFFDVWGAGTTVTVSS VL: DIVMTQSQKFMSTSVGDRVSVTCKASQNVGTNVAWYQQKPGQSPKALIYSASFRYSGVPDRFTGSGSGTDFTLTISNVQSEDLAEFFCQQYNSYPFTFGSGTRLEIK | 0.14 | –
2F6 hIgG1 (antibody, V domains shown) VH: DVKLVESGGGLVKLGGSLKLSCAASGFTFSSYYMSWVRQTPEKRLELVAAINSNGGSTYYPDTVKGRFTISRDNAKNTLYLQMSSLKSEDTAFYYCTRHYSSRFFDVWGAGTTVTVSS VL: DIVMTQSQKFMSTSVGDRVSVTCKASQNVGTNVAWYQQKPGQSPKALIYSASFRYSGVPDRFTGSGSGTDFTLTISNVQSEDLAEFFCQQYNSYPFTFGSGTRLEIK | – | Kd [3]: 50 nM
recombinant 2F6 mouse IgG2a (antibody, V domains shown, also called 2F6 mIgG2a; mouse IgG2a-2F6) VH: DVKLVESGGGLVKLGGSLKLSCAASGFTFSSYYMSWVRQTPEKRLELVAAINSNGGSTYYPDTVKGRFTISRDNAKNTLYLQMSSLKSEDTAFYYCTRHYSSRFFDVWGAGTTVTVSS VL: DIVMTQSQKFMSTSVGDRVSVTCKASQNVGTNVAWYQQKPGQSPKALIYSASFRYSGVPDRFTGSGSGTDFTLTISNVQSEDLAEFFCQQYNSYPFTFGSGTRLEIK | 1.6 | –
